Data: patent US11160869B2 (priority 2019, dated 2021)

Key:
[1] = tested on: chemokines, growth factors, cytokines; assay: Luminex 38-plex circulating cytokines, oxazolone colitis (Example 14); format: in vivo, mice
Procedure: Each sample was measured in duplicate.

[2] = tested on: growth factors, chemokines and cytokines; format: in vivo, mice
DSS-induced colitis = DSS-induced colitis dose-response (0.3, 3, 10, 30 mg/kg): in-life, necropsy, histology; format: in vivo, C57BL6/J mice
Procedure: DSS-induction of murine colitis was performed by Bolder BioPATH, Inc. (CO, USA). Female C57BL6/J mice (8-10 weeks old) were given 2.5% dextran sodium sulfate (w/v) (Spectrum, Lot #2DC0020) ad libitum in the drinking water from day 0 through day 7. On day 7, DSS was replaced with water, and the animals were maintained until day 10.
Colon histology was scored based on inflammation, gland loss, erosion and hyperplasia (max of 5 each), and these were totaled in the summary score. […] Five additional parameters (edema, neutrophil infiltration, mucosal thickness, lymphoid aggregate and lymphoid aggregate size) were also quantified. […] These histological results thus indicate a mild degree of local drug efficacy.

[3] = Pan-colonic administration via sigmoidoscopy in NHP: plasma PK and PD; format: in vivo, cynomolgus monkeys
Procedure: (§1) IL-10 delivery construct solution (at concentrations of 0.1, 0.3 and 1.0 mg/mL for the low, mid and high-dose groups respectively) was administered via the rectal route using sigmoidoscopy and a syringe connected to a spray nozzle with a 360° spray pattern. Serial biopsy samples were collected by sigmoidoscopy (pre-dose, 0.25, 0.5, 0.75, 8 and 24-28 hours post dose). Serial plasma samples from 0 min pre-dose to between 24-28 hours post-dose were collected for analysis for the IL-10 delivery construct.

colonic tissue = assay: Pan-colonic administration in NHP: colonic biopsies (IL-10, IL-1Ra, pSTAT3/STAT3, cytokines, gene expression); format: in vivo, cynomolgus monkeys
Procedure: as §1
Phosphorylation of STAT3 is an early downstream event following IL-10 receptor activation.
Colonic biopsies at each tissue timepoint were analyzed for local concentration of IL-10 delivery construct, total IL-10, IL-1Ra, soluble cytokines, activation of STAT3 and gene expression following administration of the IL-10 delivery construct. […] In addition, STC1, MTNR1A and VNN2 encode proteins that suppress the NFkβ signaling pathway, a pathway through which key pro-inflammatory cytokines are regulated. […] This is consistent with the ability of IL-10 to suppress these cells' activation or differentiation towards a pro-inflammatory immune phenotype.

ulcerative colitis = assay: Phase 1b multiple ascending dose in patients with active ulcerative colitis; format: in vivo, human; conditions: for placebo-adjusted mean reduction of FCP: baseline FCP >150 μg/g
Procedure: Data was gathered on the safety, tolerability, pharmacokinetics, pharmacodynamics, and initial clinical response following a multiple ascending dose (MAD) of the IL-10 delivery construct in adult patients with active UC over 14 days of treatment. […] A coating with a weight ratio of 50:50 of Eudragit® L30D55: Eudragit® FS30D was applied with a thickness of 14.8 to 16.0 mg/cm^2 and a weight of approximately 76 mg to each capsule. Placebo capsules were generated using similarly coated empty capsules.
A total of four cohorts were dosed with either 1 mg, 3 mg, 10, mg or 30 mg of the IL-10 delivery construct, randomized 3:1 to receive the IL-10 delivery construct or a placebo administered once daily for fourteen days. The goal of the trial was to assess the safety of the IL-10 delivery construct and any change in UC disease activity, through endoscopy, histology, biomarkers, and serum samples. Stool samples and colonic biopsies were obtained at baseline and day 14 of treatment to assess fecal calprotectin as well as histology based upon blinded central read of the Geboes scoring system. Fecal calprotectin is an objective marker of clinical response in UC studies and the Geboes scoring system is a measure of histological response. The Geboes scoring system of this example used a 0-22 point histologic scoring system in which higher scores represent more severe disease.

[4] = tested on: CD3+ cells and F4/80 macrophages; assay: Cellular target in lamina propria after oral gavage (CD3, F4/80, pSTAT3); format: in vivo, mouse; conditions: 40 min after oral gavage
[5] = Intracolonic spray in NHP: IL-1Ra, pSTAT3, construct and IL-10 in tissue and serum; format: in vivo, cynomolgus monkeys
Text: This was achieved using a colonoscope with an associated spray nozzle. In this way, refined information for onset and duration of IL-1Ra induction could be obtained at specific local doses. […] The variability of pSTAT3/total STAT3 detected was consistent with tissue capture and stability challenges in this in vivo model. Measurement of tissue delivery construct levels had similar tissue capture and stability challenges, showing low and variable amounts in the tissue samples collected (FIG. 143). […] Since IL-10 can induce cells to produce more IL-10, we also looked for induced IL-10. […] It is important to note, due to the similarity of human and NHP IL-10, that ELISA values shown could also include hIL-10 that has somehow separated from the carrier domain of the delivery construct molecule. While this cannot be ruled out, no other data supports this as an outcome and it appears likely that the majority, if not all, tissue and serum IL-10 measured represents an NHP source.

[6] = 37 C, 5 h, 0.3 mg/mL
human SMI-100 monolayers = assay: Transport across polarized human small intestinal cell monolayers (SMI-100), western blot; conditions: apical to basal, 2 hr
[7] = 1 mg once daily for 14 days, n = 3 UC patients
[8] = 3 mg once daily for 14 days, n = 3 UC patients
[9] = 10 mg once daily for 14 days, n = 3 UC patients
[10] = 30 mg once daily for 14 days, n = 3 UC patients

B1: IL-10 delivery construct: recombinant homodimeric fusion protein: N-terminal methionine, cholix386 domain, polyGlySer spacer, recombinant human IL-10 (protein)
chain: MVEEALNIFDECRSPCSLTPEPGKPIQSKLSIPSDVVLDEGVLYYSMTINDEQNDIKDEDKGESIITIGEFATVRATRHYVNQDAPFGVIHLDITTENGTKTYSYNRKEGEFAINWLVPIGEDSPASIKISVDELDQQRNIIEVPKLYSIDLDNQTLEQWKTQGNVSFSVTRPEHNIAISWPSVSYKAAQKEGSRHKRWAHWHTGLALCWLVPMDAIYNYITQQNCTLGDNWFGGSYETVAGTPKVITVKQGIEQKPVEQRIHFSKGNAMSALAAHRVCGVPLETLARSRKPRDLTDDLSCAYQAQNIVSLFVATRILFSHLDSVFTLNLDEQEPEVAERLSDLRRINENNPGMVTQVLTVARQIYNDYVTHHPGLTPEQTSAGAQAGGGGSGGGGSGGGGSPGQGTQSENSCTHFPGNLPNMLRDLRDAFSRVKTFFQMKDQLDNLLLKESLLEDFKGYLGCQALSEMIQFYLEEVMPQAENQDPDIKAHVNSLGENLKTLRLRLRRCHRFLPCENKSKAVEQVKNAFNKLQEKGIYKAMSEFDIFINYIEAYMTMKIRN
modifications: homodimer
- increased serum levels of MCSF, IL12 p70, IL-3 ([1]; 8.45 mg/kg): Treatment-mediated suppression
- reduction of plasma IL-23 compared with Vehicle ([1]; 8.45 mg/kg prophylactic): 73%
- reduction of plasma IL-6 compared with Vehicle ([1]; 8.45 mg/kg prophylactic, Luminex): 33%
- plasma TGF-β relative to Vehicle ([2]; 3.0 mg/kg): reduced
- production of IL-12 and IL-17 ([2]; 9.0 mg/kg): prevented
- plasma MCSF ([2]; highest dose (9 mg/kg)): reduced
- oxazolone-induced changes in LIX, LIF, IP10 ([2]; mouse, in vivo): mitigated
- plasma IL-3, IL-4 (9.0 mg/kg), IL-28 (3.0 and 9.0 mg/kg), IL-31 (0.3 mg/kg) ([2]; mouse, in vivo): to near-base line levels
- plasma MIP1α ([2]; mouse, in vivo): trend towards a reduction
- oxazolone-induced increase in plasma GCSF/CSF3 ([2]; prophylactic pre-treatment): attenuated
- plasma IL-13 and IL-15 ([2]; vs Vehicle): trend towards an IL-10 delivery construct-mediated decrease
- edema width, mucosal thickness, hyperplasia in the mid region (DSS-induced colitis; 30 mg/kg, relative to Vehicle): significantly improved
- colon length (DSS-induced colitis; 10 and 30 mg/kg, p<0.05 vs vehicle): Significant improvement in colon length
- DSS-induced weight loss (DSS-induced colitis; construct 30 mg/kg, CsA 75 mg/kg, q.d. oral): significantly reduced DSS-induced weight loss
- summed histology score (inflammation, gland loss, erosion, hyperplasia) (DSS-induced colitis; mouse, in vivo): did not reveal any significant improvements
- plasma IL-10 delivery construct concentration relative to IL-10 ([3]; 3 mg and 10 mg doses): 10 fold lower
- systemic IFN-γ, IL-1β, IL-2, IL-8 ([3]; 1, 3, 10 mg): did not lead to an increase
- plasma IL-1Ra ([3]; 1, 3 and 10 mg): induction of the plasma concentration of IL-1Ra was observed at all three doses
- systemic IL-6 ([3]; 3 and 10 mg groups): moderately induced
- time of maximal plasma IL-1Ra concentration ([3]; cynomolgus monkey, in vivo): 3 to 4 h
- time to detection of total IL-10 in plasma ([3]; single dose 1, 3 or 10 mg pan-colonic): ≤ 15 min
- IL-1Ra concentration in colonic tissue (colonic tissue; 1, 3, 10 mg): not further augmented
- total IL-10 in colonic tissue (colonic tissue; 1, 3, 10 mg): dose-dependent increase in total IL-10
- colonic MMP1, MMP3, MMP19 (colonic tissue; 8 h): also upregulated
- colonic TIMP1, tissue repair and anti-microbial genes (colonic tissue; 8 h): also increased
- colonic anti-inflammatory genes (CD163, miR24-2, NOX1 ...) (colonic tissue; 8 h): upregulated a number of anti-inflammatory genes
- colonic pro-inflammatory genes (MHCII, PLA2G2D, CCL20, CCL13) (colonic tissue; 8 h): decreased a number of pro-inflammatory genes
- colonic expression of CYP1A1 (colonic tissue; 8 h, 12-hour fast prior to treatment): downregulated
- colonic tissue pSTAT3/STAT3 (colonic tissue; all doses tested): Higher ratios of colonic tissue pSTAT3/STAT3
- induction of pro-inflammatory cytokines in colonic tissue (colonic tissue; cynomolgus monkey, in vivo): not observed
- time of peak total IL-10 in colonic tissue (colonic tissue; first sampling time point): 15 min
- # of TEASs (ulcerative colitis; [7]): 2
- TEASs (% pts) (ulcerative colitis; [7]): 67%
- placebo-adjusted mean reduction of FCP (ulcerative colitis; 1 mg, 14 days): 44%
- # of TEASs (ulcerative colitis; [8]): 7
- TEASs (% pts) (ulcerative colitis; [8]): 67%
- placebo-adjusted mean reduction of FCP (ulcerative colitis; 3 mg, 14 days): 27%
- FCP activity at higher doses (ulcerative colitis; 10 mg and 30 mg): diminution of activity at higher doses
- # of TEASs (ulcerative colitis; [9]): 5
- TEASs (% pts) (ulcerative colitis; [9]): 67%
- Geboes score of one UC patient (22 point scale) (ulcerative colitis; 10 mg, pre-dose to 14 days): improved from a score of 15 to a score of three
- # of TEASs (ulcerative colitis; [10]): 6
- TEASs (% pts) (ulcerative colitis; [10]): 67%
- tolerability in patients with UC (ulcerative colitis; 1, 3, 10, 30 mg once daily 14 days): well tolerated
- CRP levels compared to placebo (ulcerative colitis; 1 and 3 mgs, baseline CRP greater than 5 mg/L): greater reductions in CRP levels
- TEAEs in the 12 active patients (ulcerative colitis; 14 days): 20
- patients with reduced Geboes scores (ulcerative colitis; 14 days, (6/10) active patients): 60%
- # of TEASs (ulcerative colitis; All Active, n = 12 UC patients): 20
- TEASs (% pts) (ulcerative colitis; All Active, n = 12 UC patients): 67%
- detection in systemic circulation (ulcerative colitis; human, in vivo): not detected in systemic circulation
- treatment emergent AEs of anemia or thrombocytopenia (ulcerative colitis; human, in vivo): no treatment emergent AEs of anemia or thrombocytopenia were observed
- co-localization of pSTAT3 with CD3+ cells [4]: A moderate proportion of CD3+ cells
- co-localization of pSTAT3 with F4/80 macrophages [4]: extensive co-localization with pSTAT3
- serum levels of IL-10 [5]: increased in a dose-dependent manner
- serum levels of the delivery construct ([5]; 1, 3, or 10 mg colonic spray): below the assay detection limit
- time to reach the lamina propria following luminal application ([5]; cynomolgus monkey, in vivo): ~15 min
- tissue IL-10 levels ([5]; within 15 min after spray): dose-dependent and transient increases
- solution stability after reconstitution in PBS [6]: significant degradation
- transport across monolayers relative to rhIL-10 (human SMI-100 monolayers): to a greater extent
